Reference: IntAct's records for PubMed 19798056

B1: TOM1-like protein 1 (Homo sapiens), O75674 (parent)
chain: MAFGKSHRDPYATSVGHLIEKATFAGVQTEDWGQFMHICDIINTTQDGPKDAVKALKKRISKNYNHKEIQLTLSLIDMCVQNCGPSFQSLIVKKEFVKENLVKLLNPRYNLPLDIQNRILNFIKTWSQGFPGGVDVSEVKEVYLDLVKKGVQFPPSEAEAETARQETAQISSNPPTSVPTAPALSSVIAPKNSTVTLVPEQIGKLHSELDMVKMNVRVMSAILMENTPGSENHEDIELLQKLYKTGREMQERIMDLLVVVENEDVTVELIQVNEDLNNAILGYERFTRNQQRILEQNKNQKEATNTTSEPSAPSQDLLDLSPSPRMPRATLGELNTMNNQLSGLNFSLPSSDVTNNLKPSLHPQMNLLALENTEIPPFAQRTSQNLTSSHAYDNFLEHSNSVFLQPVSLQTIAAAPSNQSLPPLPSNHPAMTKSDLQPPNYYEVMEFDPLAPAVTTEAIYEEIDAHQHKGAQNDGD

Variants of: B1
Conditions: with grb2_human GRB2, P62993

effect of a mutation on the interaction	Variant
disrupting interaction	Y460F

Variants of: B1
Conditions: with grb2_human GRB2, P62993
Remark: another data set of the same source

effect of a mutation on the interaction	Variant
disrupting interaction	Y392F
